Data: patent US20250171562A1 (ALK ABELL, published 2025)

Biological target: T1, recombinant human IgE (human, UniProt P01854-1 1-428)
T1 construct: made in-house (ALK); preloaded on immobilised FcεRIα in the displacement ELISA
Assay: IgE-FcεRIα displacement ELISA
Outline: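 Streptavidin-coated plates carried site-specifically biotinylated recombinant human FcεRIα, loaded with recombinant human IgE at 13 ng/ml. sdAbs in a pM–μM series were added for 1 h, and displaced IgE was washed off. Percent displacement was the signal reduction versus the no-sdAb control, giving EC50 and maximal effect.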

T1 sequence (P01854 other isoform, or with tags, fused parts or gaps): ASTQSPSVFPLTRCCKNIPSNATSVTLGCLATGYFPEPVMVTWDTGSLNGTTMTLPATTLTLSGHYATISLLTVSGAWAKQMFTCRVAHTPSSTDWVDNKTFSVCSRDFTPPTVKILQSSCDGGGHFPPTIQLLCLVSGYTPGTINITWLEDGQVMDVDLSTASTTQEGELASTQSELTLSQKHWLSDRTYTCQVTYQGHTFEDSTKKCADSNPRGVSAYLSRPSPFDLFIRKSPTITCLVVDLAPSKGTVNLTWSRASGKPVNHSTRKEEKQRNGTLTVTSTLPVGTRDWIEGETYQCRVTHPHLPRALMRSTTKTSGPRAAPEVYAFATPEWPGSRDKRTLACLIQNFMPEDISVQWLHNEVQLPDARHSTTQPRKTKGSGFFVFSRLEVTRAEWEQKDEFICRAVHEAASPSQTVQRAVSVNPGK

Binder | Max effect [%]
NIgG4B2A1(G4S)1 (Fc fusion) chain 1: QVQLVESGGGLVQAGGSLRLSCAVFGSTFSNNVADWYRQAPGKQRELVARISASGATREYGDSVKGRFTISRDDAKNTMYLQMNNLKPEDTAVYRCHKIEWEDLSRKDYWGQGTQVTVSGGGGSGPPCPPCPAPEFLGGPSVFLFPPKPKDTLMISRTPEVTCVVVDVSQEDPEVQFNWYVDGVEVHNAKTKPREEQFNSTYRVVSVLTVLHQDWLNGKEYKCKVSNKGLPSSIEKTISKAKGQPREPQVYTLPPCQEEMTKNQVSLWCLVKGFYPSDIAVEWESNGQPENNYKTTPPVLDSDGSFFLYSRLTVDKSRWQEGNVFSCSVMHEALHNHYTQKSLSLSLGK chain 2: EVQLLESGGGLVQPGGSLRLSCAASGFTFGNYDMAWVRQAPGKRPEWVSSIDTGGDITHYADSVKGRFTISRDNAKNTLYLQMNSLRPEDTAVYWCATDEEYALGPNEFDYYGQGTLVTVSSGGGGSGPPCPPCPAPEFLGGPSVFLFPPKPKDTLMISRTPEVTCVVVDVSQEDPEVQFNWYVDGVEVHNAKTKPREEQFNSTYRVVSVLTVLHQDWLNGKEYKCKVSNKGLPSSIEKTISKAKGQPREPQVCTLPPSQEEMTKNQVSLSCAVKGFYPSDIAVEWESNGQPENNYKTTPPVLDSDGSFFLVSRLTVDKSRWQEGNVFSCSVMHEALHNHYTQKSLSLSLGK | > 95
NIgG4B2A1(G4S)3 (Fc fusion) chain 1: QVQLVESGGGLVQAGGSLRLSCAVFGSTFSNNVADWYRQAPGKQRELVARISASGATREYGDSVKGRFTISRDDAKNTMYLQMNNLKPEDTAVYRCHKIEWEDLSRKDYWGQGTQVTVSGGGGSGGGGSGGGGSGPPCPPCPAPEFLGGPSVFLFPPKPKDTLMISRTPEVTCVVVDVSQEDPEVQFNWYVDGVEVHNAKTKPREEQFNSTYRVVSVLTVLHQDWLNGKEYKCKVSNKGLPSSIEKTISKAKGQPREPQVYTLPPCQEEMTKNQVSLWCLVKGFYPSDIAVEWESNGQPENNYKTTPPVLDSDGSFFLYSRLTVDKSRWQEGNVFSCSVMHEALHNHYTQKSLSLSLGK chain 2: EVQLLESGGGLVQPGGSLRLSCAASGFTFGNYDMAWVRQAPGKRPEWVSSIDTGGDITHYADSVKGRFTISRDNAKNTLYLQMNSLRPEDTAVYWCATDEEYALGPNEFDYYGQGTLVTVSSGGGGSGGGGSGGGGSGPPCPPCPAPEFLGGPSVFLFPPKPKDTLMISRTPEVTCVVVDVSQEDPEVQFNWYVDGVEVHNAKTKPREEQFNSTYRVVSVLTVLHQDWLNGKEYKCKVSNKGLPSSIEKTISKAKGQPREPQVCTLPPSQEEMTKNQVSLSCAVKGFYPSDIAVEWESNGQPENNYKTTPPVLDSDGSFFLVSRLTVDKSRWQEGNVFSCSVMHEALHNHYTQKSLSLSLGK | > 95
NIgG4B2A1(G4S)2 (Fc fusion) chain 1: QVQLVESGGGLVQAGGSLRLSCAVFGSTFSNNVADWYRQAPGKQRELVARISASGATREYGDSVKGRFTISRDDAKNTMYLQMNNLKPEDTAVYRCHKIEWEDLSRKDYWGQGTQVTVSGGGGSGGGGSGPPCPPCPAPEFLGGPSVFLFPPKPKDTLMISRTPEVTCVVVDVSQEDPEVQFNWYVDGVEVHNAKTKPREEQFNSTYRVVSVLTVLHQDWLNGKEYKCKVSNKGLPSSIEKTISKAKGQPREPQVYTLPPCQEEMTKNQVSLWCLVKGFYPSDIAVEWESNGQPENNYKTTPPVLDSDGSFFLYSRLTVDKSRWQEGNVFSCSVMHEALHNHYTQKSLSLSLGK chain 2: EVQLLESGGGLVQPGGSLRLSCAASGFTFGNYDMAWVRQAPGKRPEWVSSIDTGGDITHYADSVKGRFTISRDNAKNTLYLQMNSLRPEDTAVYWCATDEEYALGPNEFDYYGQGTLVTVSSGGGGSGGGGSGPPCPPCPAPEFLGGPSVFLFPPKPKDTLMISRTPEVTCVVVDVSQEDPEVQFNWYVDGVEVHNAKTKPREEQFNSTYRVVSVLTVLHQDWLNGKEYKCKVSNKGLPSSIEKTISKAKGQPREPQVCTLPPSQEEMTKNQVSLSCAVKGFYPSDIAVEWESNGQPENNYKTTPPVLDSDGSFFLVSRLTVDKSRWQEGNVFSCSVMHEALHNHYTQKSLSLSLGK | > 95
